B1: Affinity matured Axl mAb YW327.6S2 (full-length human IgG) (antibody, V domains shown)
VH: EVQLVESGGGLVQPGGSLRLSCAASGFSLSGSWIHWVRQAPGKGLEWVGWINPYRGYAYYADSVKGRFTISADTSKNTAYLQMNSLRAEDTAVYYCAREYSGWGGSSVGYAMDYWGQGTLVTVSS
VL: DIQMTQSPSSLSASVGDRVTITCRASQDVSTAVAWYQQKPGKAPKLLIYSASFLYSGVPSRFSGSGSGTDFTLTISSLQPEDFATYYCQQSYTTPPTFGQGTKVEIK
notes: No sentence ties these to this name, so they are not used; also called YW327.652
B2: YW327.6S2 Fab fragment (Fab, V domains shown)
VH: B1 VH
VL: B1 VL
notes: The result sentence names only the mAb; also called anti-Axl Fab fragment; YW327.652

Experiments:
[1] = target: human Axl ECD-His protein (human) (UniProt P30530); experiment: SPR (BIAcore-3000): IgG captured by anti-human IgG, human Axl ECD-His injected
human Axl-Fc (human) = human Axl-Fc (human) (UniProt P30530); experiment: competition ELISA; human Axl-Fc captured on anti-human IgG Fc plate, blocked ligand Gas6 detected with biotinylated anti-Gas6 and streptavidin-HRP
human Mer-Fc = target: T1, human Mer-Fc (human, UniProt Q12866 26-499); experiment: ELISA; receptor-Fc captured on anti-human IgG Fc coated plate
T1 construct: not shown: Fc part not described
T1 sequence (looked up): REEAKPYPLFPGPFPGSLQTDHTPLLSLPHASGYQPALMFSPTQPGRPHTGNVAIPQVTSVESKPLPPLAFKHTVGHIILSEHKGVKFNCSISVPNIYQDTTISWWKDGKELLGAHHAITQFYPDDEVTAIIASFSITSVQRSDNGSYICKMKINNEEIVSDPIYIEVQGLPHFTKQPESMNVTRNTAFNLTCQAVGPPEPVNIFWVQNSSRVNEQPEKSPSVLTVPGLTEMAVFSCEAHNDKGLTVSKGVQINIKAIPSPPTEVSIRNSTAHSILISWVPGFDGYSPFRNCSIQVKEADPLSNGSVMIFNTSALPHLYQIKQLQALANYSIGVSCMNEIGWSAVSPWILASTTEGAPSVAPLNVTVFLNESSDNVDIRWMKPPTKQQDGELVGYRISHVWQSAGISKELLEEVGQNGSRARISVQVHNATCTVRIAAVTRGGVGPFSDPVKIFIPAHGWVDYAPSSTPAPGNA
Description: (§1) Plates were coated with anti-human IgG Fc, and then incubated with human Axl, Mer, Tyro3 Fcs, mouse or cynomolgus AxlFcs. […] FIG. 7D: ELISA. Plates were coated with anti-human IgG Fc and incubated with human Axl-Fc. […] FIG. 7E: FACS. […] A549 cells were incubated with 1 μg/mlYW327.6S2 for indicated time, and cell surface Axl expression was determined by FACS (upper panel), and total protein expression by Western Blotting analysis (lower panel). […] Phosphorylated Axl was measured by ELISA (upper panel), and phosphorylated Akt by Western Blotting analysis (lower panel). […] Cell viability was measured by CellTiter Glo assay.
(§2) ELISA assays were performed as follows: goat anti-human IgG Fc coated plates were blocking with 0.5% BSA, PBS, 0.05% Tween 20 (PBST). For cross reaction assay, coated plates were incubated with human Axl.Fc, mouse Axl.Fc or human Mer.Fc, Tyro-3.Fc for 1 hr at room temperature, washed four times in PBST, incubated with anti-Axl mAbs and HRP-conjugated anti-mouse Ig. […] Plates were washed four times in PBST, incubated with biotinylated anti-mGas6 and strepavidin-HRP. Secreted Ang-2 and DKK3 was measured using R&D ELISA kit, according to the manufacturer's instruction.

human Tyro3-Fc = target: T2, human Tyro3-Fc (human, UniProt Q06418 41-428); experiment: as above
T2 construct: not shown: Fc part not described
T2 sequence (looked up): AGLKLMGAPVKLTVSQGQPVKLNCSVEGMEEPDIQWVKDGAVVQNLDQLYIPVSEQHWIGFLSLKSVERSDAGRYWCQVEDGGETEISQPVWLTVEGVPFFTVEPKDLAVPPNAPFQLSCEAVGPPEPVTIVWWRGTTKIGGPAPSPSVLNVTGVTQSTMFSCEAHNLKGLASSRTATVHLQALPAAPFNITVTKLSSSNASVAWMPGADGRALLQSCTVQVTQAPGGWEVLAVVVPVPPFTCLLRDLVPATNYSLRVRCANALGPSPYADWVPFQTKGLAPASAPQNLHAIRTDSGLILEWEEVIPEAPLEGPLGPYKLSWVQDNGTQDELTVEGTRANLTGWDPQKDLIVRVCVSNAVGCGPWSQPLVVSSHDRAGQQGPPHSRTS
Description: as §1, §2

[2] = target: human Axl on the cell surface (HUVEC, A549, H1299, Baf3Axl cells) (human, UniProt P30530 26-894); experiment: FACS on HUVEC; cells treated with antibody, then Gas6; blocked ligand Gas6 detected with biotinylated anti-Gas6 and streptavidin-PE
[3] = target: T3, murine Axl ECD-Fc fusion protein (murine; human, UniProt Q00993 19-445); experiment: SPR (BIAcore-3000): murine Axl ECD-Fc captured by anti-human IgG, anti-Axl Fab injected
T3 construct: extracellular domain; also called murine Axl ECD human IgG fusion protein; mouse Axl.Fc; not shown: human IgG Fc
Description: Association rates (kₒₙ) and dissociation rates (koff) were calculated using a simple one-to-one Langmuir binding model (BIAcore Evaluation Software version 3.2).

Chain of human Axl-Fc (human) (P30530 other isoform, or with tags, fused parts or gaps, form in doubt): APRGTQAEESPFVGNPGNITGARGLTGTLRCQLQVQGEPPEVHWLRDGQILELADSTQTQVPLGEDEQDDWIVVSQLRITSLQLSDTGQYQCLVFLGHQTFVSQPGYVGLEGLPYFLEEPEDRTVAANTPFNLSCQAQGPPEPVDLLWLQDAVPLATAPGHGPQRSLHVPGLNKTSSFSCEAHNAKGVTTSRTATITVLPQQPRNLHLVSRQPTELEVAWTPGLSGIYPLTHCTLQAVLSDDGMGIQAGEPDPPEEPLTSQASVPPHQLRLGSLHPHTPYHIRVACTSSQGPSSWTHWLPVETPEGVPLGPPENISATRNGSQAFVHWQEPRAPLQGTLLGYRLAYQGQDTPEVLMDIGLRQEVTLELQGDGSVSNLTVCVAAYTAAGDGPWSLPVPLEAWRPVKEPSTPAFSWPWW
Chain of human Axl on the cell surface (HUVEC, A549, H1299, Baf3Axl cells) (P30530 other isoform, or with tags, fused parts or gaps limits assumed): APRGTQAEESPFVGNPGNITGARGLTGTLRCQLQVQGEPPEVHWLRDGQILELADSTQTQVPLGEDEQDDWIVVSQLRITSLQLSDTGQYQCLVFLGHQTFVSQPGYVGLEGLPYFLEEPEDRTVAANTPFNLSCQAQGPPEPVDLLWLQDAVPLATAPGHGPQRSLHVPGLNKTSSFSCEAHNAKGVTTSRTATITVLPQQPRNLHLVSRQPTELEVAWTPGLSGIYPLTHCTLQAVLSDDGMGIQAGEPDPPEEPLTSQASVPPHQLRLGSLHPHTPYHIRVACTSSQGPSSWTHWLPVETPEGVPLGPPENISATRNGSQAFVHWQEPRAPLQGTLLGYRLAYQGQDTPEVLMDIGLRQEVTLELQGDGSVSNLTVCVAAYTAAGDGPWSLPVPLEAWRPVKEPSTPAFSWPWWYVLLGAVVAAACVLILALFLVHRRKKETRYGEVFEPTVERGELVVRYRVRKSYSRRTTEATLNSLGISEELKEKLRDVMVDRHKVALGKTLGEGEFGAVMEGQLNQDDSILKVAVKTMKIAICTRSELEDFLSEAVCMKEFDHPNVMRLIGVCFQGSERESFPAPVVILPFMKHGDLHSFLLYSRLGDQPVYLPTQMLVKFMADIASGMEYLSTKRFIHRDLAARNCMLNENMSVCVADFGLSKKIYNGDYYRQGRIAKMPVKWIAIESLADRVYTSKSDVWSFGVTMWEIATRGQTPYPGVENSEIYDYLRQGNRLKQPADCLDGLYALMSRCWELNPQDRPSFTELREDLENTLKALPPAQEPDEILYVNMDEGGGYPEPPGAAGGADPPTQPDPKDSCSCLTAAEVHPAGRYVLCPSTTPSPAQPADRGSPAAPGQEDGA
T3 sequence (Q00993 19-445): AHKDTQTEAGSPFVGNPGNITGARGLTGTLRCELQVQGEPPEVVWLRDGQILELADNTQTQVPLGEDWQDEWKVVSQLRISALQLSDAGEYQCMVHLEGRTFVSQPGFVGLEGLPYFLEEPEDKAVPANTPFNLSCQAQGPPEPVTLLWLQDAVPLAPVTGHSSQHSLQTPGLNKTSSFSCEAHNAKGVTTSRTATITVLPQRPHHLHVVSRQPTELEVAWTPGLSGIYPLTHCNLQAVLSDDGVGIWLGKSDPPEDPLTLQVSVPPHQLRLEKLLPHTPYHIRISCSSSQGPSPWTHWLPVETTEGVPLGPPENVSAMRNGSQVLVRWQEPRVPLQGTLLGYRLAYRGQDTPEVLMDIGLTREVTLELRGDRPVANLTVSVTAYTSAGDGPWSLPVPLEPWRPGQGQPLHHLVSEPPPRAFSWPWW

Binder | Kd [1] | IC50 (read off the curve) (human Axl-Fc (human)) | binding result (human Mer-Fc) | binding result (human Tyro3-Fc) | IC50 (read off the curve) [2] | Kd [3]
B1 | 1 nM | 0.02 µg/mL | no binding (tested: concentration not shown) | no binding (tested: concentration not shown) | ~0.1 µg/mL | 
B2 |  |  |  |  |  | 0.545 nM

Reference: patent publication US20130243753A1 (Genentech, published 2013)
